B1: RICKΔCARD (residues 1-374), Flag-tagged (other, not shown: small tags and cut ends)
chain: MNGEAICSALPTIPYHKLADLRYLSRGASGTVSSARHADWRVQVAVKHLHIHTPLLDSERKDVLREAEILHKARFSYILPILGICNEPEFLGIVTEYMPNGSLNELLHRKTEYPDVAWPLRFRILHEIALGVNYLHNMTPPLLHHDLKTQNILLDNEFHVKIADFGLSKWRMMSLSQSRSSKSAPEGGTIIYMPPENYEPGQKSRASIKHDIYSYAVITWEVLSRKQPFEDVTNPLQIMYSVSQGHRPVINEESLPYDIPHRARMISLIESGWAQNPDERPSFLKCLIELEPVLRTFEEITFLEAVIQLKKTKLQSVSSAIHLCDKKKMELSLNIPVNHGPQEESCGSSQLHENSGSPETSRSLPAPQDNDFLS
notes: also called pcDNA3-Flag-RICK(1-374)
B2: TRADD (other, UniProt Q15628 1-312, looked up)
chain: MAAGQNGHEEWVGSAYLFVESSLDKVVLSDAYAHPQQKVAVYRALQAALAESGGSPDVLQMLKIHRSDPQLIVQLRFCGRQPCGRFLRAYREGALRAALQRSLAAALAQHSVPLQLELRAGAERLDALLADEERCLSCILAQQPDRLRDEELAELEDALRNLKCGSGARGGDGEVASAPLQPPVPSLSEVKPPPPPPPAQTFLFQGQPVVNRPLSLKDQQTFARSVGLKWRKVGRSLQRGCRALRDPALDSLAYEYEREGLYEQAFQLLRRFVQAEGRRATLQRLVEALEENELTSLAEDLLGLTDPNGGLA
notes: Construct and tag not described
B3: IKKα (enzyme, UniProt O15111 1-745, looked up)
chain: MERPPGLRPGAGGPWEMRERLGTGGFGNVCLYQHRELDLKIAIKSCRLELSTKNRERWCHEIQIMKKLNHANVVKACDVPEELNILIHDVPLLAMEYCSGGDLRKLLNKPENCCGLKESQILSLLSDIGSGIRYLHENKIIHRDLKPENIVLQDVGGKIIHKIIDLGYAKDVDQGSLCTSFVGTLQYLAPELFENKPYTATVDYWSFGTMVFECIAGYRPFLHHLQPFTWHEKIKKKDPKCIFACEEMSGEVRFSSHLPQPNSLCSLVVEPMENWLQLMLNWDPQQRGGPVDLTLKQPRCFVLMDHILNLKIVHILNMTSAKIISFLLPPDESLHSLQSRIERETGINTGSQELLSETGISLDPRKPASQCVLDGVRGCDSYMVYLFDKSKTVYEGPFASRSLSDCVNYIVQDSKIQLPIIQLRKVWAEAVHYVSGLKEDYSRLFQGQRAAMLSLLRYNANLTKMKNTLISASQQLKAKLEFFHKSIQLDLERYSEQMTYGISSEKMLKAWKEMEEKAIHYAEVGVIGYLEDQIMSLHAEIMELQKSPYGRRQGDLMESLEQRAIDLYKQLKHRPSDHSYSDSTEMVKIIVHTVQSQDRVLKELFGHLSKLLGCKQKIIDLLPKVEVALSNIKEADNTVMFMQGKRQKEIWHLLKIACTQSSARSLVGSSLEGAVTPQTSAWLPPTSAEHDHSLSCVVTPQDGETSAQMIEENLNCLGHLSTIIHEANEEQGNSMMNLDWSWLTE
notes: Construct and tag not described for this test
B4: IKKβ (enzyme, UniProt O14920 1-756, looked up)
chain: MSWSPSLTTQTCGAWEMKERLGTGGFGNVIRWHNQETGEQIAIKQCRQELSPRNRERWCLEIQIMRRLTHPNVVAARDVPEGMQNLAPNDLPLLAMEYCQGGDLRKYLNQFENCCGLREGAILTLLSDIASALRYLHENRIIHRDLKPENIVLQQGEQRLIHKIIDLGYAKELDQGSLCTSFVGTLQYLAPELLEQQKYTVTVDYWSFGTLAFECITGFRPFLPNWQPVQWHSKVRQKSEVDIVVSEDLNGTVKFSSSLPYPNNLNSVLAERLEKWLQLMLMWHPRQRGTDPTYGPNGCFKALDDILNLKLVHILNMVTGTIHTYPVTEDESLQSLKARIQQDTGIPEEDQELLQEAGLALIPDKPATQCISDGKLNEGHTLDMDLVFLFDNSKITYETQISPRPQPESVSCILQEPKRNLAFFQLRKVWGQVWHSIQTLKEDCNRLQQGQRAAMMNLLRNNSCLSKMKNSMASMSQQLKAKLDFFKTSIQIDLEKYSEQTEFGITSDKLLLAWREMEQAVELCGRENEVKLLVERMMALQTDIVDLQRSPMGRKQGGTLDDLEEQARELYRRLREKPRDQRTEGDSQEMVRLLLQAIQSFEKKVRVIYTQLSKTVVCKQKALELLPKVEEVVSLMNEDEKTVVRLQEKRQKELWNLLKIACSKVRGPVSGSPDSMNASRLSQPGQLMSQPSTASNSLPEPAKKSEELVAEAHNLCTLLENAIQDTVREQDQSFTALDWSWLQTEEEEHSCLEQAS
notes: as for B3

What follows are binders tested against T1, Nod2 (wild-type, HA-tagged) (human, UniProt Q9HC29 1-1040) (assay: co-immunoprecipitation, HEK293T extracts).
T1 construct: Expressed in HEK293T cells and tested in cell extracts by co-immunoprecipitation; also called Nod2a; wt Nod2; not shown: HA tag; the plasmid is named both pcDNA3-Nod2-HA and pcDNA3-HA-Nod2, so the end that carries the ta
T1 sequence (Q9HC29 whole entry): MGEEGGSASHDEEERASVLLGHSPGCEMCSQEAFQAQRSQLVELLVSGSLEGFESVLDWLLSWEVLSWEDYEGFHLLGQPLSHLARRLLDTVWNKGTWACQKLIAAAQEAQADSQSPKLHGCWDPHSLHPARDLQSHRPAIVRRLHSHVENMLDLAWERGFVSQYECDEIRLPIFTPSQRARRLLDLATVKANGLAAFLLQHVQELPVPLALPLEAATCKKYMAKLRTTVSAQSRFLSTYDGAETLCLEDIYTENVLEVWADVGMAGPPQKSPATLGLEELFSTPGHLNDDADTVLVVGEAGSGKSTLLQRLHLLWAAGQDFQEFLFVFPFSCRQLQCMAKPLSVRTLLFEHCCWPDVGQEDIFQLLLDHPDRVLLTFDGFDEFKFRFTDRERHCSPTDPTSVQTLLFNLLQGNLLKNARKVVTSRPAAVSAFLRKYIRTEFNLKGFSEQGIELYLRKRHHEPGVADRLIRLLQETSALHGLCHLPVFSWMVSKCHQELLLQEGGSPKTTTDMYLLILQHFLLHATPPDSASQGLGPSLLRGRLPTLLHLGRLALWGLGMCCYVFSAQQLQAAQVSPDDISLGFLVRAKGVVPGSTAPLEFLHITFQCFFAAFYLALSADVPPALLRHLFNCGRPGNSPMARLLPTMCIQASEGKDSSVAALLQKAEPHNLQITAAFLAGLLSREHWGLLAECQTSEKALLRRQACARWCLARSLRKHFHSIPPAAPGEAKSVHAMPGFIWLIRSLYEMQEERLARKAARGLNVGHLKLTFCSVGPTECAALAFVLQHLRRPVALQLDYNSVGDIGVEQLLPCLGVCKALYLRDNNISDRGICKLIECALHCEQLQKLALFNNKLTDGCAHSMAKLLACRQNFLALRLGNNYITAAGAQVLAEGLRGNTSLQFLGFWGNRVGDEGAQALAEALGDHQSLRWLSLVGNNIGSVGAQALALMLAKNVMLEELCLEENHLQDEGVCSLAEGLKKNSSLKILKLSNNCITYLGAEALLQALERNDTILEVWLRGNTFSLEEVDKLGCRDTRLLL
Source text: Proteins co-immunoprecipitated with anti-HA antibody were detected with anti-Flag antibody. […] Proteins in total lysate were detected by anti-Flag and anti-HA monoclonal antibody, respectively. […]

Binding result, no binding:
B1
B2
B3
B4
